{"source": "paper PMC4271445", "binders": {"B1": {"name": "Myc-DDK-tagged DDX1 (natural protein)", "chain": "MAAFSEMGVMPEIAQAVEEMDWLLPTDIQAESIPLILGGGDVLMAAETGSGKTGAFSIPVIQIVYETLKDQQEGKKGKTTIKTGASVLNKWQMNPYDRGSAFAIGSDGLCCQSREVKEWHGCRATKGLMKGKHYYEVSCHDQGLCRVGWSTMQASLDLGTDKFGFGFGGTGKKSHNKQFDNYGEEFTMHDTIGCYLDIDKGHVKFSKNGKDLGLAFEIPPHMKNQALFPACVLKNAELKFNFGEEEFKFPPKDGFVALSKAPDGYIVKSQHSGNAQVTQTKFLPNAPKALIVEPSRELAEQTLNNIKQFKKYIDNPKLRELLIIGGVAARDQLSVLENGVDIVVGTPGRLDDLVSTGKLNLSQVRFLVLDEADGLLSQGYSDFINRMHNQIPQVTSDGKRLQVIVCSATLHSFDVKKLSEKIMHFPTWVDLKGEDSVPDTVHHVVVPVNPKTDRLWERLGKSHIRTDDVHAKDNTRPGANSPEMWSEAIKILKGEYAVRAIKEHKMDQAIIFCRTKIDCDNLEQYFIQQGGGPDKKGHQFSCVCLHGDRKPHERKQNLERFKKGDVRFLICTDVAARGIDIHGVPYVINVTLPDEKQNYVHRIGRVGRAERMGLAISLVATEKEKVWYHVCSSRGKGCYNTRLKEDGGCTIWYNEMQLLSEIEEHLNCTISQVEPDIKVPVDEFDGKVTYGQKRAAGGGSYKGHVDILAPTVQELAALEKEAQTSFLHLGYLPNQLFRTF"}}, "target": "Nullbasic-FLAG-V5-6xHis (HIV-1)", "experiment": "BLI", "data": [{"binder": "B1", "values": [{"measurement": "Kd", "result": 6, "unit": "nM"}]}]}
